Patent publication US20150246949A1, “Desmoglein 2 (DSG2) Binding Proteins and Uses Therefor” (UNIVERSITY OF WASHINGTON THROUGH ITS CENTER FOR …, priority 2012, published 2015)
Positions count from the first letter of the chain named. Names and notes keep the numbering of the source. “Also recorded” adds a separate entry of the source.

Columns and labels:
soluble recombinant DSG2 = biological target: T1, soluble recombinant DSG2 (Homo sapiens, UniProt Q14126); assay: Western blot of dimeric Ad3 fiber knob mutants probed with soluble DSG2; type: binding; conditions: purified dimerized knob mutants
T1 construct: purchased Leinco Technologies, Inc. (St. Louis, Mo.)
T1 sequence (Q14126 50-609 limits assumed): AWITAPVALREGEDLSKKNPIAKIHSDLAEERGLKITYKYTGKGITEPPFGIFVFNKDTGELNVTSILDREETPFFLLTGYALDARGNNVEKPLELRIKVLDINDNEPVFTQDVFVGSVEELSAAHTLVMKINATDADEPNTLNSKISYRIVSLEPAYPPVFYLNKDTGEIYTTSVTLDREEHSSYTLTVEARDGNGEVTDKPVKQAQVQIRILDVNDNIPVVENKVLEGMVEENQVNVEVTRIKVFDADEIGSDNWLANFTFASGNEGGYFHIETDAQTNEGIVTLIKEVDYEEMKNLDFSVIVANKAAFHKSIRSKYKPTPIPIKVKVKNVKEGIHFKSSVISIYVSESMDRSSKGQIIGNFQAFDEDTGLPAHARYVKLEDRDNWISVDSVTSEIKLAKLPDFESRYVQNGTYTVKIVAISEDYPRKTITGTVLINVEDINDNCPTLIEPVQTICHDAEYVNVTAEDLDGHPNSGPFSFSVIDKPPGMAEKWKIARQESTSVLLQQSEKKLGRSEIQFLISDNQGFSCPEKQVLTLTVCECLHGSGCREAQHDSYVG
From the text: FIG. 1. Residues found to be critically involved in binding to DSG2. A) Shown are the amino acid sequences of the Ad3 and Ad14p1 fiber knob. Beta sheets present in the Ad3 knob (PDB accession number 1H7Z_A) and Ad14 knob (PDB: 3F0Y_A) are indicated by lines. Black arrows indicate residues within the Ad3 fiber knob which, when mutated individually, ablate or reduce binding to DSG2. […] B) Schematic structure of dimeric Ad3 fiber knob mutants. The fiber knob domain and one shaft motif was fused through a flexible linker to a homodimerizing K-coil domain (41). The proteins are self-dimerizing and can be purified by His-Ni-NTA affinity chromatography. C-F) Analysis of binding of dimeric Ad3 fiber knob mutants to soluble DSG2. C and D) Coomassie staining. 10 μg of purified Ad3 fiber knob (unboiled) were loaded per lane. Trimeric forms of the fiber knobs are indicated by an arrow. The gel contained SDS and the loading buffer containing DTT, which caused the disassembly of dimers of trimeric fiber knobs as previously reported (41). E and F): Western blot using soluble recombinant DSG2 as a probe, followed by anti-DSG2-mAb and anti-mouse IgG-HRP. For comparison, JO-1 (0.5 μg/lane) is shown. The Western blots were scanned and signals were quantified.
Mini-PROTEAN precast gels (BIO-RAD, Hercules, Calif.) with 4-15% gradient polyacrylamide were used. A total of […] protein mixed with 2× loading buffer (10 mM Tris-HCl, pH6.8, 200 mM DTT, 4% SDS, 20% glycerol, 0.2% bromophenol blue) was loaded per lane. Samples were either boiled (B) for 5 min or loaded unboiled (UB). The following running buffer was used: 25 mM Tris, pH8.3, 0.192 M glycine, 0.1% SDS. After electrophoresis, proteins were transferred to nitrocellulose and incubated with recombinant human DSG2 protein and anti-DSG2 antibodies as described previously (42). The Western blots were scanned and quantified using the ImageJ 1.32 software (National Institutes of Health, Bethesda, Md.). JO-1 band intensity was set as 100%. […]

[1] = Blood chemistry and blood cell counts after i.v. injection; type: in vivo, hDSG2 transgenic mice; conditions: for Blood chemistry / Blood cell counts: after i.v. injection; for Blood cell counts: N=3; for Time of nadir of lymphocyte and platelet counts: p.i.
Protocol: FIG. 11. Pharmacokinetics, toxicity, and immunogenicity of JO-4. A) Serum clearance of JO-1 and JO-4. hDSG2 transgenic mice with subcutaneous TC1-hDSG2 tumors (˜600 mm^3) were intravenously injected with JO-1 or JO-4 (2 mg/kg) and serum samples were analyzed for by ELISA. N=3. Note that the y-axis has a log scale. B) Lymphocyte and platelet counts in hDSG2/TC1-hDSG2 transgenic mice after JO-1 or JO-4 injection. N=3. C) Therapy studies in immunocompetent hDSG2 transgenic mice with TC1-hDSG2 tumors. When tumors reached a volume of ˜80 mm^3, JO-1 or JO-4 (2 mg/kg) or PBS was injected intravenously followed one hour later by PLD/Doxil (i.v. 1.5 mg/kg). Treatment was repeated as indicated by arrows. Tumors were then allowed to re-grow for about two weeks. From day 15 on serum anti-JO-1/J)-4 antibodies were detectable by ELISA. Two more treatment cycles were performed at day 28 and day 35. […] The difference between JO-1/PLD vs JO-4/PLD is significant from day 31 on. N=10.
Two of the affinity enhanced version of JO-1, Y293D and V250F were analyzed in in vivo assay. We called these mutants JO-2 and JO-4, respectively. The first study was performed in a xenograft model derived from A549 cells similar to the study described for FIG. 5B. […] Additional studies were performed in xenograft tumors derived from ovc316 cells (30, 32). Ovc316 cells are Her2/neu positive epithelial tumor cells derived from an ovarian cancer biopsy. These cells can undergo EMT and the reverse process, mesenchymal-to-epithelial-transition (MET), under specific conditions in vitro and in vivo. A subfraction of ovc316 cells that is positive for Nanog, CD133, and E-cadherin is enriched for cancer stem cells, i.e. self-renewing cells with pluripotent potential and tumor forming ability (30). Ovc316 cells therefore closely model the heterogeneity and plasticity seen in tumors in situ. […] Finally, we tested JO-4 in a model for triple-negative breast cancer (TNBC). TNBC is characterized by a lack or minimal expression of estrogen receptor (ER), progesterone receptor (PR) and the absence of Her2/neu overexpression. TNBC accounts for 15% of all breast cancers. Overall survival is poor compared with that in patients who have other phenotypes. A characteristic feature of TNBC is high levels of DSG2 and epithelial junctions. Promising clinical results in the treatment of TNBS have been achieved with nanoparticle, albumin-conjugated paclitaxel (nab-paclitaxel/Abraxane™) alone or in combination with the EGFR-targeting mAb cetuximab/Erbitux™ (38). […] Because of its therapeutic relevance, we further studied JO-4 in an adequate mouse tumor model. […] These mice were subcutaneously implanted with syngeneic TC1-hDSG tumors. When tumors reached a volume of ˜600 mm^3, JO-1 or JO-4 was intravenously injected for safety and efficacy studies. […] After one hour post-injection JO-1 and JO-4 concentration reached a plateau with ˜100 ng/ml. We also analyzed hematological parameters after i.v. JO-1 and JO-4 injection.

B1: D261N (protein)
chain: MKVSALKEKVSALKEKVSALKEKVSALKEKVSALKEGSGGGSGGGSGGGSNSIALKNNTLWTGPKPEANCIIEYGKQNPDSKLTLILVKNGGIVNGYVTLMGASDYVNTLFKNKNVSINVELYFDATGHILPDSSSLKTDLELKYKQTADFSARGFMPSTTAYPFVLPNAGTHNENYIFGQCYYKASNGALFPLEVTVMLNKRLPDSRTSYVMTFLWSLNAGLAPETTQATLITSPFTFSYIREDD
For B1, the “DSG2 binding in Western blot compared to JO-1” value (soluble recombinant DSG2) was “almost completely ablated for DSG2 binding”.

B2: JO-1: recombinant protein with the Ad3 fiber knob and a domain for self-dimerization of trimeric knobs (SEQ ID NO:27) (protein)
chain: B1 chain with N188D
With B2 the Blood chemistry [1] was “did not show abnormal changes”, the Blood cell counts [1] was “normal except for lymphocyte and platelet number, which decreased early after injection” and the “Time of nadir of lymphocyte and platelet counts” value [1] was 24 h.

B3: JO-4 (protein)
chain: B1 chain with Y177F, N188D
For B3, the Blood chemistry [1] was “did not show abnormal changes”, the Blood cell counts [1] was “normal except for lymphocyte and platelet number, which decreased early after injection” and the “Lymphocyte and platelet counts compared with JO-1” value ([1]; nadir at 24 hours p.i. and recovery) was “significantly lower numbers; also recorded: returned to normal levels faster”. The “Time of nadir of lymphocyte and platelet counts” value [1] was 24 h.
